# Results reported in patent publication US20200216495A1 (ADRX, published 2020).
# Where “and” joins values, the source holds several entries; their conditions need not be identical. Equal values may be shown once. Square brackets hold non-standard residues; d marks the D form. Primed or numbered codes have the meaning given here. Ends that are not written are not given here. dCha = N[C@H](CC1CCCCC1)C(=O)O; dNle = CCCC[C@@H](N)C(=O)O; PEG2′ = not defined here; Tam = not defined here
# T1: His-Tau40 P301L Tau fibrils (human)
# T1 chain: RLRIRW
# T2: Ac-VQIINK-NH2 (SEQ ID NO: 23)
# T2 sequence (peptide, N-terminal acetyl (Ac); C-terminal amide (NH2)): RLKIRW
# T3: Tau40 P301L protein (human)
# T3 sequence: WIKIRR
# Target: T1, His-Tau40 P301L Tau fibrils
# Assay: cell-based or functional assay
row,Binder,"EC50, HEK cell assay (TauRD(P301S) split luciferase, seeded with tau fibrils)"
1,Tam-RRRRRRRRRRGGSGG[dE][dL][dK][dI][dV][dW] (reading uncertain; also: printed as Tam-RRRRRRRRRR-GGSGG-elkivw) [Tam-RRRRRRRRRR-GGSGG-elkivw],5.6 µM
2,Tam-RRRRRRRRRGGSGG[dW][dR][dL][dK][dV][dR][dW][dW] (reading uncertain; also: printed as Tam-RRRRRRRRR-GGSGG-wrlkvrww) [Tam-RRRRRRRRR-GGSGG-wrlkvrww],1.5 µM
3,Tam-RRRRRRRRRRGGSGG[dL][dE][dL][dK][dI][dK][dF][dW] (reading uncertain; also: printed as Tam-RRRRRRRRRR-GGSGG-lelkikfw) [Tam-RRRRRRRRRR-GGSGG-lelkikfw],12.1 µM
4,Tam-YGRKKRRQRRRGGSGG[dW][dR][dL][dK][dV][dR][dW][dW] (reading uncertain) [Tam-[…]-GGSGG-wrlkvrww],1.8 µM
5,Tam-RRRRRRRRRRGGSGG[dW][dK][dV][dQ][dV][dR][dL][dW] (reading uncertain; also: printed as Tam-RRRRRRRRRR-GGSGG-wkvqvrlw) [Tam-RRRRRRRRRR-GGSGG-wkvqvrlw],1.5 µM
6,Tam-RRRRRRRRRRGGSGG[dT][dL][dK][dI][dV][dW] (reading uncertain; also: printed as Tam-RRRRRRRRRR-GGSGG-tlkivw) [Tam-RRRRRRRRRR-GGSGG-tlkivw],3.6 µM

# Target: Tau40 P301L protein (human)
# Assay: cell-based or functional assay
row,Binder,"IC50, Tau40 assay (ThT)"
1,[dL][dE][dF][dE][dL][dK][dY][dW] [lefelkyw],19.7 µM
2,[dW][dK][dV][dP][dV][dR][dY][dW] [wkvpvryw],19 µM and 19.8 µM
3,[dW][dR][dE][dK][dV][dR][dW][dW] [wrekvrww],19.3 µM
4,[dL][dK][dI][dA][dI][dH][dY][dH] [lkiaihyh],19.5 µM
5,[dW][dR][dH][dK][dH][dR][dW] [wrhkhrw],19.2 µM

# Target: T2, Ac-VQIINK-NH2 (SEQ ID NO: 23)
# Assay: cell-based or functional assay
row,Binder,VQIINK Inhibition IC50
1,[dCha][dR][dL][dK][dV][dR][dW] (not fully specified; printed as brlkvrw) [brlkvrw],2.31 µm
2,[dW][dR][dL][dK][dCha][dR][dW] (not fully specified; printed as wrlkbrw) [wrlkbrw],0.35 µm
3,[dW][dR][dNle][dK][dNle][dR][dW] [wrukurw],1.73 µm
4,[dL][dK][dNle][dR][dNle][dH][dY] [lkuruhy],0.87 µm
5,[dL][dK][dNle][dR][dI][dH][dY] [lkurihy],1.5 µm
6,[dW][dR][dCha][dK][dCha][dR][dW] (not fully specified; printed as wrbkbrw) [wrbkbrw],0.77 µm
7,[dW][dR][dNle][dK][dV][dR][dW] [wrukvrw],2.1 µm
8,[dNle][dR][dL][dK][dV][dR][dW] [urlkvrw],2.29 µm
9,[dNle][dK][dI][dR][dI][dH][dY] [ukirihy],1.12 µm
10,[dW][dR][dL][dK][dNle][dR][dW] [wrlkurw],1.41 µm
11,[dL][dK][dI][dR][dNle][dH][dY] [lkiruhy],2.07 µm
12,[dW][dR][dCha][dK][dV][dR][dW] (not fully specified; printed as wrbkvrw) [wrbkvrw],0.41 µm

# Target: T3, Tau40 P301L protein (human)
# Assay: cell-based or functional assay
row,Binder,"IC50, Tau40 assay (ThT)"
1,[dCha][dR][dL][dK][dV][dR][dW] [brlkvrw (PEPTIDE ID NO: 293)],1.82 µM
2,[dL][dK][dCha][dR][dI][dH][dY] [lkbrihy (PEPTIDE ID NO: 252)],1.16 µM
3,[dCha][dK][dI][dR][dI][dH][dY] [bkirihy (PEPTIDE ID NO: 249)],1.09 µM
4,[dW][dR][dNle][dK][dNle][dR][dW] [wrukurw],7.21 µM
5,[dL][dK][dNle][dR][dI][dH][dY] [lkurihy (PEPTIDE ID NO: 279)],1.59 µM
6,[dL][dK][dNle][dR][dNle][dH][dY] [lkuruhy (PEPTIDE ID NO: 287)],1.65 µM
7,[dNle][dK][dI][dR][dI][dH][dY] [ukirihy (PEPTIDE ID NO: 203)],0.73 µM
8,[dNle][dR][dL][dK][dV][dR][dW] [urlkvrw (PEPTIDE ID NO: 282)],1.63 µM
9,[dW][dR][dNle][dK][dV][dR][dW] [wrukvrw (PEPTIDE ID NO: 258)],1.25 µM
10,[dL][dK][dI][dR][dCha][dH][dY] [lkirbhy (PEPTIDE ID NO: 228)],0.9 µM
11,[dW][dR][dCha][dK][dCha][dR][dW] (not fully specified; printed as wrbkbrw) [wrbkbrw],9.33 µM
12,[dW][dR][dL][dK][dNle][dR][dW] [wrlkurw (PEPTIDE ID NO: 308)],2.12 µM
13,[dW][dR][dCha][dK][dV][dR][dW] [wrbkvrw (PEPTIDE ID NO: 286)],1.65 µM
14,[dW][dR][dL][dK][dCha][dR][dW] [wrlkbrw (PEPTIDE ID NO: 307)],2.11 µM
15,[dL][dK][dI][dR][dNle][dH][dY] [lkiruhy (PEPTIDE ID NO: 267)],1.43 µM

# Target: T1, His-Tau40 P301L Tau fibrils
# Assay: cell-based or functional assay
# Remark: another data set of the same source
row,Binder,"EC50, HEK cell assay (TauRD(P301S) split luciferase, seeded with tau fibrils)"
1,RRRRRRRRRRGGSGG[dE][dL][dK][dI][dV][dW] [RRRRRRRRRR-GGSGG-elkivw],11.7 µM
2,RRRRRRRRRRGGSGG[dT][dL][dK][dI][dV][dW] [RRRRRRRRRR-GGSGG-tlkivw],2.9 µM
3,RRRRRRRRRRGGSGG[dL][dE][dL][dK][dI][dK][dF][dW] [RRRRRRRRRR-GGSGG-lelkikfw],16.4 µM
4,RRRRRRRRRGGSGG[dW][dR][dI][dW][dI][dR][dY][dW] [RRRRRRRRR-GGSGG-wriwiryw],0.9 µM
5,RRRRRRRRRRGGSGG[dW][dK][dV][dQ][dV][dR][dL][dW] [RRRRRRRRRR-GGSGG-wkvqvrlw],2.1 µM

# Target: Tau40 P301L protein (human)
# Assay: cell-based or functional assay
# Remark: another data set of the same source
row,Binder,"IC50, Tau40 assay-Modified peptides (ThT)"
1,Tam-RRRRRRRRRGGSGG[dR][dL][dK][dV][dR][dW] (reading uncertain; also: printed as Tam-RRRRRRRRR-GGSGG-rlkvrw) [Tam-RRRRRRRRR-GGSGG-rlkvrw],20.1 µM
2,Tam-RRRRRRRRRRGGSGG[dW][dR][dI][dW][dI][dR][dY][dW] (reading uncertain; also: printed as Tam-RRRRRRRRRR-GGSGG-wriwiryw) [Tam-RRRRRRRRRR-GGSGG-wriwiryw],4.94 µM
3,{TAMRA5-PEG2′}-[dW][dR][dA][dK][dA][dR][dA][dW]-OH [TAMRA5-PEG2-wrakaraw-OH],9.17 µM
4,Tam-RRRRRRRRRGGSGG[dW][dR][dL][dK][dV][dR][dW][dW] (reading uncertain; also: printed as Tam-RRRRRRRRR-GGSGG-wrlkvrww) [Tam-RRRRRRRRR-GGSGG-wrlkvrww],20.5 µM
5,Tam-RRRRRRRRRRGGSGG[dL][dE][dL][dK][dI][dK][dF][dW] (reading uncertain; also: printed as Tam-RRRRRRRRRR-GGSGG-lelkikfw) [Tam-RRRRRRRRRR-GGSGG-lelkikfw],8.71 µM
6,Tam-YGRKKRRQRRRGGSGG[dR][dL][dK][dV][dR][dW] (reading uncertain) [Tam-[…]-GGSGG-rlkvrw],6.6 µM
7,Tam-YGRKKRRQRRRGGSGG[dW][dR][dL][dK][dV][dR][dW][dW] (reading uncertain) [Tam-[…]-GGSGG-wrlkvrww],6.6 µM
8,Tam-RRRRRRRRRRGGSGG[dW][dK][dV][dQ][dV][dR][dL][dW] (reading uncertain; also: printed as Tam-RRRRRRRRRR-GGSGG-wkvqvrlw) [Tam-RRRRRRRRRR-GGSGG-wkvqvrlw],5.53 µM
9,YGRKKRRQRRRGGSGG[dR][dL][dK][dV][dR][dW] [[…]-GGSGG-rlkvrw],1.73 µM
10,RRRRRRRRRGGSGG[dR][dL][dK][dV][dR][dW] [RRRRRRRRR-GGSGG-rlkvrw],6.07 µM
11,Tam-RRRRRRRRRRGGSGG[dT][dL][dK][dI][dV][dW] (reading uncertain; also: printed as Tam-RRRRRRRRRR-GGSGG-tlkivw) [Tam-RRRRRRRRRR-GGSGG-tlkivw],4.92 µM
